Source: the nanobody polyreactivity screen of Harvey et al. (2022)

Assay: yeast display, Sf9 membrane polyspecificity reagent, FACS + sequencing; frameworks hold sequencing errors
Procedure, shortened: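 Nanobodies came from a synthetic yeast display library in Saccharomyces cerevisiae BJ5465, induced with galactose for 36–48 hours and stained for 1 hour at 4 °C with 10% biotinylated, detergent-solubilized Sf9 membrane reagent. Cells were enriched on streptavidin microbeads and then FACS-sorted, with low and high (top ~1%) gates set on anti-HA fluorescence for expression and streptavidin fluorescence for reagent binding. Each polyreactivity label reflects the gate a clone came from. Genes were amplified by colony PCR, sequenced by MiSeq 2 × 250 and filtered by CDR length.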

Sequence: QVQLVESGGGLVLAGGSLRLSCAASGRIFTNNVMGWYRQAPGKERELVAAISRSGGRTYYADSVKGRFTISRDNAKNTVYLQMNSLKPEDTAVYYCAAVYQKAATDKYESVYESYYWGQGTQVTVSS
- polyreactivity (PSR sort gate): high polyreactivity

Sequence: QVQLVESGGGLVQAGGSLRLSCAASGTNVMGWYRQAPGKERELVAAISGSGGSTYYADSVKGRFTISRDNAKNSVYFQMNSLKPEDSAVYYCAADSIQYTARPYDYWGQGTQVTVSS
- polyreactivity (PSR sort gate): low polyreactivity

Sequence: QVQLVESGGGLVQAGGSLRLSCAASGLIFGTNAMGWYRQAPGKERELVAAISGSGGRTYYADSVKGRFTISRDNAKNTVYLQMNSLKPEDTAVYYCATAWYLGRYRRLGYWGQGTQVTVSS
- polyreactivity (PSR sort gate): high polyreactivity

Sequence: QVQLVESGGGLVQAGGSLRLSCAASGFTFDYYAMGWYRQAPGKERELVAVITSRGGSTFYADSVKGRFTISRDNAKNTVYLQMNSLKPEDTAVYYCARQHYRLFRPYDYWGQGTQVTVSS
- polyreactivity (PSR sort gate): high polyreactivity

Sequence: QVQLVESGGGLVQAGGSLRLSCAASGYTSYRYAMGWYRQAPGKERELVAAINWSGSSTYYADSVKGRFTISRDYAKNTVYLQMNSLKPEDTAVYYCAARRYRSPIGGYDYWGQGTQVTVSS
- polyreactivity (PSR sort gate): high polyreactivity

Sequence: QVQLVASGGGLDQAGGSLRLSCAASGFPFQENAMGWYRQAPGKERELVAAISYGGGSPSYADSVKGRFTISRDNAKNTVYVQMNSLKPEDNAVYYCAADGGSAYAWYFAELYGYWGQGTQVTVSS
- polyreactivity (PSR sort gate): low polyreactivity

Sequence: QVQLVESGGGLVQAGGSLRLSCAASGYTFDGYAMGWYRQAPGKERELVAAINSGGGTYYADSVKGRFTISRDNAKNTVYLQMNSLKPEDTAVYYCAKYTYDYWGQGTQVTVSS
- polyreactivity (PSR sort gate): low polyreactivity

Sequence: QVQHVESGGALVQAGGILRLSCAASGYTFYVYAMGWYRQAPGKERELVAAISGGSNTYYADSVKGRFTISRDNGKNTVYLQMNSLKPEDTAVYYCAKSSTTYRQRARYDYWGQGTQVTVSS
- polyreactivity (PSR sort gate): high polyreactivity

Sequence: QVQLVESGGGLVQAGGSLRLSCAASGFIFHPYAMGWYRQAPGKERELVATITWSDDSTYYADSVKGRFTISRDNAKNTVYLQMNSLKPEDTAVYYCAARHKQHNRYDYWGQGTQVTVSS
- polyreactivity (PSR sort gate): low polyreactivity

Sequence: QVQLVESGGGLVQAGGSLRLSCAASGFIFSYYTMGWYRQAPGKESELVAAISYSGGSTDYADSVKWRFTISRDNAKNTVYLQMNSLKPEDTAVYYCNADYSFWAEPYWEYGYDYWGQGTQVTVSS
- polyreactivity (PSR sort gate): low polyreactivity

Sequence: QVQLVESGGGLVQGGGSLRLSCAASGRTFYWNAMGWYRQAPGKERELVAAIRWRGGNTYYADSVKGRFTISRDIEKNTVYLQMNSLKPEDSAVYYCAAAGGNTEMGYWGQGSQVTVSS
- polyreactivity (PSR sort gate): high polyreactivity

Sequence: QVQLVESGGGLVQAGGSLRLSCAASGRIFRYYAMGWYRQAPGKERELVAAINSGGSTKYADSVKGRFTISRDNAKNTVYLQMNSLTPEDTAVYYCNKDHAFSRYWYGGFDYWGQGTQVTVSS
- polyreactivity (PSR sort gate): high polyreactivity

Sequence: QVQLVESGGGLVQAGGSLRLSSAASGRTFLRYAMGWYRQAPGKVRELVAAISWSGGRTYYADSVKGRFRISRDLAKNTVYLQMNSLKTEVTAVYYCNKGVLYGAHFYYWGQGTQVTGSS
- polyreactivity (PSR sort gate): high polyreactivity

Sequence: QVQLVESGGGLVQAGGSLRLSCAASGRIFHQYGMGGYSQAPGKERELVAAIRSGDSTNYADSVKGRFTISRDNAKNTVYVQMNSLKPEDTAVYYCARDRPGDYAGYDYWGQGTQVTVSS
- polyreactivity (PSR sort gate): low polyreactivity

Sequence: QVQLVESGGGLVQAGGSLRLSCAASGRIFYIYAMGWFRQAPGKERELVAAITNGGSTNYADSVKGRFTISRDNAKNTVYLQMNSLKPEDTAVYYCAASVGTYAYARTVYRYDYWGQGTQVTVSS
- polyreactivity (PSR sort gate): low polyreactivity

Sequence: QVQLVDSGGGLVQAGGSLSLSCAASGNIFDYNVMGWYRQAPGKERELVAAITASAVRTYYADSVKGRFTISRDNAKNTVYLQMNSLKPEDIAVYYCGKRRIVRQRSYYYWGQGTQVTVSS
- polyreactivity (PSR sort gate): low polyreactivity

Sequence: QVQLVESGGGLVKAGGSLRLSCAASGYTFGKYAMGWYRQAPGKERELVAAISWSGGSTYYADSVKGRFRISRDNAKNTVYLQMNSLKPEDTAVYYCNKGYFGRYGYWGQGTQVTVSS
- polyreactivity (PSR sort gate): high polyreactivity

Sequence: QVQLVESGGGLVQAGGSLRLSCAASVFTLWLNAMGWYRQAPGKERELVAAITTSDDGTYYADSVKGRFTISRDNAKNTVYLQMNSLKPEDTAVYYCAADYYSVLYDYWGQGTQVTVSS
- polyreactivity (PSR sort gate): low polyreactivity

Sequence: QVQLVESGGGLVQAGGSLRLSCAASGFTFPTYAMGWYRQAPGKERELVAALSTSGARTYYADSVKGRFTISRDNAKNTVYLQMNSLKPEDTAVYYCAVGSIYTICFRKGYRFDYWGQGTQVTVSS
- polyreactivity (PSR sort gate): high polyreactivity

Sequence: QVQLVESGGGLVQAGRSLRLSCAASGITFGRNTMGWYRQAPGKERELVAAIDSGGNTYADSVKGRFTISRDNAKNTVYLQMNSLKPEDTAVYYCAVDGGEFSSYGYWGQGTQVSVSS
- polyreactivity (PSR sort gate): low polyreactivity

Sequence: QVQLVESGGGLVQAGVSLRLSCAASGSTLISNTMGWNRQAPWKERELVAAITRTGGRTYYADSVKGRFTSSRDTAKNTVDLPMNSLKPEDTAVYYCARYGGYLSLKYDYWGQGTQVTVAS
- polyreactivity (PSR sort gate): high polyreactivity

Sequence: QVQLVDSGGGLVQEGGSLRLSCAASGSIFLIYAMGWYRQAPGKERELVAAITGGGTTNYADSVKGRFTISRDNAKNTVYLQMNSLKPEDTAVYYCNTLYLVYLYWTSPTPSDLFDYWGQGTQVTVSS
- polyreactivity (PSR sort gate): low polyreactivity

Sequence: QVQLVESGGGLVQAGGSLRLSCAASGIIFTTYDMGWYRQAPGKERELVAAISSSTTNTYYADSVKGRFTISRDNAKNTVYLQMNSLKPEDTAVYYCAADGYSLDRYEYWGQGTQVTVSS
- polyreactivity (PSR sort gate): low polyreactivity

Sequence: QVQLVESGGGLVQAGGSLRLSCAASGRTFYIYAMGWYRQAPGKERELVAAISWGSGSTYYADSVKGRFTISRDNAKNTVYLQMNSLKPEDTAVYYCAAEYAYPSEWTYDYWGQGTQVTVSS
- polyreactivity (PSR sort gate): low polyreactivity

Sequence: QVQLVESGGGLVLAGGSLRLSCAASGGTFARYAMGWYRQAPGKERELVAAISRGGSTNYADSVKGRFTISRDNAKNTVYLQMNSLKPEDTAVYYCAAGSRRAAWYDYSYPYGYWGQGTQVTVSS
- polyreactivity (PSR sort gate): high polyreactivity

Sequence: QVQLVESGGGLVQAGGSLRLSCAASGSIFGRNAMGWYRQAPGKERELVAVITSTGGSTYYADSVKGRFTISRDNAKNTVYLQMNSLKPEDTAVYYCAARTRYRYGYWGQGTQVTVSS
- polyreactivity (PSR sort gate): high polyreactivity

Sequence: KVQLLYSAGGLVHAGGSLRLSCAASGNIFRSYAMGWYRQAPGKERELVAAISSRGGSTYYADTVKVRFTISRDNAMNTVYLQMNSLKPEDTAVYYCNAPSTQQGPKYDYWGQGTQVTVSS
- polyreactivity (PSR sort gate): low polyreactivity

Sequence: QVQLVESGGGLVQAGGSLRLSCAATGRIFSIYAMGWYRQAPGKERELVAAISGGGSTYYADSVKGRFTISRDNAKNTVYLQMNSLKPEDTAVYYCAALQSYYRYFGYDYWGQGTQVTVSS
- polyreactivity (PSR sort gate): low polyreactivity

Sequence: QVQLVESGGGLVQAGGSLRLSCAASGRIFDHNAMGWYRQAPGKERELVAAIDSGTSTNYADSVKGRFTISRDNAKNTVYLQMNSLKPEDTAVYYCARLLGPVRDKYDYDYWGQGTQVTVSS
- polyreactivity (PSR sort gate): low polyreactivity

Sequence: QVQLVESGGGLVQAGGSLRLSCAASGRTLSANAMGWYRQAPGKERELVATISTRGGRTYYADSVKGRFTISRDNAKNTVYLQMNSLKPEDTAVYYCARLPPGDMDYWGQGTQVTVSS
- polyreactivity (PSR sort gate): low polyreactivity

Sequence: QVQLVESGGGLVQAGGSLRLSCAASGFTFKWYTRGWYRQAPGKERELVAAISTRGGSTYYADSVKGRFTISRDNAKNTVYLQMNSLKPEDTAVYYCAAVYRRGSGYDYWGQGTQVTVSS
- polyreactivity (PSR sort gate): high polyreactivity

Sequence: QVQLVESAGGLVQAGGSLRLSCAASGITFEVYAMGWYRQAPGKERELVAAITGSGSRTYYADSVKGRFTISRDNAKNTVYLQMNSLKPEDTAVYYCAVKGFSTRSYREFDYWGQGSQVTVSS
- polyreactivity (PSR sort gate): low polyreactivity

Sequence: QVQLVDSGGGLVQAGGSHRLSCAASGSIFPRYAMGWYRQAPGKERELVAAITRSGGSTYADSVKGRFTISRDNAKNTVYLQMNSLKPEDTAVYYCNGKVYPWGYYTSWRTVSPYDYWGQGTQVTVSS
- polyreactivity (PSR sort gate): high polyreactivity

Sequence: QVQLVESGGGLVQAGGSLRLSCAASGSIFWYYAMGWSRQAPGKERELVAAITGSGGSTYYADSVKGRFTISRDNAKTTVYLQLNSLKPEDTAVYYCAAEAFFWYYGWYDYWGQGTQVTVSS
- polyreactivity (PSR sort gate): high polyreactivity

Sequence: QVQLVESGGGLVQAGGSLRLSCAASGSTFNRYALGWYRQAPGKEREFVAAISTRGGSTHYADSVKGRFTISRDNAKNTVYLQMNSLKPEDTAVYYCNARGYYSVPSNTGIRYYRFDYWGQGTQVTVSS
- polyreactivity (PSR sort gate): low polyreactivity

Sequence: QVQLVESGGGLVQAGGSLRLSCAASGIIIYRYVMGWYRPAPGKERELVASISSSGGRTHYADSVKGRFTISRDNAKNTVYLQMNSLKPEDTAVYYCAAVQRSSFYRRYDYWGQGTQVTVSS
- polyreactivity (PSR sort gate): high polyreactivity

Sequence: QVQLVESGGGLVQAGGSLRLSCAASGFTFSKYAMGWYRQAPGKERELVAAISRSAGSTYYADSVKGRFTISRDNAKNTVYLQMNSLKPEDNAVYYCARDNPRSPSGYNYWGQGSQVTVSS
- polyreactivity (PSR sort gate): high polyreactivity

Sequence: QVQLVESGGGLVQAGGSLRLSCAPSGRISGWYAMGWYRQAPGKQRELVASISSSGGSTYYADSVKGRFTISRDNAKNSVYLQMNSLKPEDTAVYYCAVRRYNWSFYRGYDYWGQGTQVTVSS
- polyreactivity (PSR sort gate): high polyreactivity

Sequence: QVQLVESGGGLVQAGGSLRLSCAASGRIFYRNAMGWYRQAPGTDRELVARITSSGGTTYYADSVKGRFTISRDNAKNTVYLQMNSLQPEDTAVYYCAARSVTQRKMYYWGQGTQVTVSS
- polyreactivity (PSR sort gate): high polyreactivity

Sequence: QVQLVESGGGLVQAGGSLRLSCAASGLIFYRYAMGWYRQAPGKERELVAAISARGSSTYYADSVKGRFTISRDNAKNTVYLQMNSLKPEDTAVYYCAAGATGTSYYGGDYWGQGTQVTVSS
- polyreactivity (PSR sort gate): high polyreactivity

Sequence: QVQLVESGGGLVQAGGSLRLSCAASGSTFRWYAMGWYRQAPGKERELVAAITSSGSTYYADSVKGRFTISRDNAKNTVYLQMNSLKPEDTAVYYCAARANGYWNTYEHDYWGQGIQVTVSS
- polyreactivity (PSR sort gate): low polyreactivity

Sequence: QVQLVESGGGLVQAGGSLRLSCADSGLIFEDYAMGWYRQAPGKERELVAAIDWGGGSTYYADSVKGRFTISRDNAKNTVYLQMNSLKPEDTAVYYCAADSYFSYRYNYWGQGTQVTVSS
- polyreactivity (PSR sort gate): low polyreactivity

Sequence: QVQLVESGGGLVQAGGSLRLSCAASGRTFKKYAMGWFRQAPGKERELVAAITGSGGSTYYADSVKGRFTISRDNAKNTVYLQMNSLKPEDTADYYCAAYAYGVWHSQDGGNYWGQGTQVTVSS
- polyreactivity (PSR sort gate): low polyreactivity
